B1: MeV-V_(CT221-299) (measles virus V protein, residues 221-299, containing the C-terminal domain) (domain or fragment)
chain: GPASTSETPIKKGHRREIGLIWNGDRVFIDRWCNPMCSKVTLGTIRARCTCGECPRVCEQCRTDTGVDTRIWYHNLPEIPE
notes: additional Gly and Pro before Ala221, left after HRV-3C protease digestion; 15N- or 13C,15N-labelled for the NMR experiments, unlabelled for ITC; Monomer by SEC; also called MeV-VCT construct; MeV-VCTD; source: E. coli BL21 star (DE3), purified (Glutathione Sepharose 4B, 3C protease elution, HisTrap, HIC, SEC); not shown: GST, N-terminal, cleaved

Assays:
[1] = biological target: STAT2 core (Homo sapiens) (UniProt P52630); conditions: cited from earlier work
STAT2-core = biological target: T1, STAT2-core (UniProt P52630 133-679); experiment: ITC; 250 µM MeV-V_(CT221-299) injected (20 x 2.5 µL) into 35 µM STAT2-core; 20°C; 10 mM HEPES pH 7.4, 150 mM NaCl, 1 mM TCEP; 1:1 binding model; three independent experiments; conditions: both partners purified
T1 construct: source: purified
T1 sequence: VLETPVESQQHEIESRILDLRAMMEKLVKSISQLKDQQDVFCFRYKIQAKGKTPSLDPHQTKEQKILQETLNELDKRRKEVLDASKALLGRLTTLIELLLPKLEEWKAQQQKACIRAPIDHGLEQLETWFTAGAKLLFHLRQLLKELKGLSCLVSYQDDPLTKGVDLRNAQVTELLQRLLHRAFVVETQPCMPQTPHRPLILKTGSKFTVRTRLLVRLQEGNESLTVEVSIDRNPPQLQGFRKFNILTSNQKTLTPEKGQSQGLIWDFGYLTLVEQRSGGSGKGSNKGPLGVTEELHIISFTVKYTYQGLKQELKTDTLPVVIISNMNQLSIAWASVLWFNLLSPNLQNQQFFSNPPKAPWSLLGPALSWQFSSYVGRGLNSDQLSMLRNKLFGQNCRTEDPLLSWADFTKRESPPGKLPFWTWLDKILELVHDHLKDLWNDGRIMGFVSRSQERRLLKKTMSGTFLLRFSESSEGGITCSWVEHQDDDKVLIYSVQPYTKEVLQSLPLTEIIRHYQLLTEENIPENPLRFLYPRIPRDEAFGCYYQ

| Molecule | Kd [1] | Kd (STAT2-core) | dH (STAT2-core) | stoichiometry N (STAT2-core) |
| --- | --- | --- | --- | --- |
| MeV-V (from UniProt P0C774) | 180 nM |  |  |  |
| B1 |  | 212 nM | -12.5 kcal/mol | 1.17 |
